The results in this text go back to paper PMC4807281, “Glutathionylation of the Bacterial Hsp70 Chaperone DnaK Provides a Link between Oxidative Stress and the Heat Shock Response” (The Journal of Biological Chemistry, 2016).

The data set has as its target Cys15 (UniProt position 15, GTTNSCVAIMD). The data set can be described thus: UV-vis. The following applies: 25 °C; 100 mM KCl, 5 mM MgCl2 (plus KOH added during titration); Buffer B: 50 mM Tris-HCl, pH 7.5, 100 mM KCl, 5 mM MgCl2. The pH was raised by stepwise addition of 6 N KOH in Buffer B.; Reduced (free thiol) DnaK with no nucleotide or peptide added (apo state), 15 μM protein.

As for “Chaperone protein DnaK (Hsp70) (Escherichia coli)”, the pKa entry is recorded as “about 12”.
